Laboratory results published in the supplement of paper PMC5998384.

Legend:
HeLa Kyoto [1] = test: solubility in G1/S (NP-40 vs SDS abundance) (log2 ratio); higher = more soluble; conditions: cell cycle stage: G1/S
HeLa Kyoto [2] = test: solubility change mitosis vs G1/S (difference of NP-40 vs SDS log2 ratios) (log2 ratio difference); higher = more soluble in mitosis
HeLa Kyoto [3] = test: melting temperature (median over replicates), in situ; higher = more thermally stable
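Throughout, for melting temperature (median over replicates), in situ: HeLa Kyoto cells synchronized by double thymidine or nocodazole block, proteins quantified by TMT10plex mass spectrometry, three independent biological replicates.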
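Throughout, for solubility change mitosis vs G1/S (difference of NP-40 vs SDS log2 ratios): synchronized HeLa Kyoto cells (double thymidine block for G1/S, nocodazole release for mitosis), protein amounts in NP-40 versus SDS lysates quantified by mass spectrometry, three biological replicates.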
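Throughout, for solubility in G1/S (NP-40 vs SDS abundance): HeLa Kyoto cells arrested at G1/S by double thymidine block, proteins quantified by TMT10plex mass spectrometry in mild NP-40 versus SDS extracts, three biological replicates.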

| Substance | solubility in G1/S (log2) (HeLa Kyoto [1]) | solubility change mitosis (log2) (HeLa Kyoto [2]) | melting temperature (HeLa Kyoto [3]; cell cycle stage: G1/S) | melting temperature (HeLa Kyoto [3]; cell cycle stage: mitosis) |
| --- | --- | --- | --- | --- |
| MITKTHKVDLGLPEKKKKKKVVKEPETRYSVLNNDDYFADVSPLRATSPSKSVAHGQAPEMPLVKKKKKKKKGVSTLCEEHVEPETTLPARRTEKSPSLRKQVFGHLEFLSGEKKNKKSPLAMSHASGVKTSPDPRQGEEETRVGKKLKKHKKEKKGAQDPTAFSVQDPWFCEAREARDVGDTCSVGKKDEEQAALGQKRKRKSPREHNGKVKKKKKIHQEGDALPGHSKPSRSMESSPRKGSKKKPVKVEAPEYIPISDDPKASAKKKMKSKKKVEQPVIEEPALKRKKKKKRKESGVAGDPWKEETDTDLEVVLEKKGNMDEAHIDQVRRKALQEEIDRESGKTEASETRKWTGTQFGQWDTAGFENEDQKLKFLRLMGGFKNLSPSFSRPASTIARPNMALGKKAADSLQQNLQRDYDRAMSWKYSRGAGLGFSTAPNKIFYIDRNASKSVKLED [KNOP1] | -1.76 | 1.57 | 54.2 °C | 52.1 °C |
| MYQDYPGNFDTSSRGSSGSPAHAESYSSGGGGQQKFRVDMPGSGSAFIPTINAITTSQDLQWMVQPTVITSMSNPYPRSHPYSPLPGLASVPGHMALPRPGVIKTIGTTVGRRRRDEQLSPEEEEKRRIRRERNKLAAAKCRNRRRELTEKLQAETEELEEEKSGLQKEIAELQKEKEKLEFMLVAHGPVCKISPEERRSPPAPGLQPMRSGGGSVGAVVVKQEPLEEDSPSSSSAGLDKAQRSVIKPISIAGGFYGEEPLHTPIVVTSTPAVTPGTSNLVFTYPSVLEQESPASPSESCSKAHRRSSSSGDQSSDSLNSPTLLAL [FOSL2] | 0.191 | 0.106 | 53.9 °C | 55.1 °C |
| BCL9L | 0.294 | 0.083 | 55.7 °C | 54.4 °C |
| MPIVDKLKEALKPGRKDSADDGELGKLLASSAKKVLLQKIEFEPASKSFSYQLEALKSKYVLLNPKTEGASRHKSGDDPPARRQGSEHTYESCGDGVPAPQKVLFPTERLSLRWERVFRVGAGLHNLGNTCFLNATIQCLTYTPPLANYLLSKEHARSCHQGSFCMLCVMQNHIVQAFANSGNAIKPVSFIRDLKKIARHFRFGNQEDAHEFLRYTIDAMQKACLNGCAKLDRQTQATTLVHQIFGGYLRSRVKCSVCKSVSDTYDPYLDVALEIRQAANIVRALELFVKADVLSGENAYMCAKCKKKVPASKRFTIHRTSNVLTLSLKRFANFSGGKITKDVGYPEFLNIRPYMSQNNGDPVMYGLYAVLVHSGYSCHAGHYYCYVKASNGQWYQMNDSLVHSSNVKVVLNQQAYVLFYLRIPGSKKSPEGLISRTGSSSLPGRPSVIPDHSKKNIGNGIISSPLTGKRQDSGTMKKPHTTEEIGVPISRNGSTLGLKSQNGCIPPKLPSGSPSPKLSQTPTHMPTILDDPGKKVKKPAPPQHFSPRTAQGLPGTSNSNSSRSGSQRQGSWDSRDVVLSTSPKLLATATANGHGLKGNDESAGLDRRGSSSSSPEHSASSDSTKAPQTPRSGAAHLCDSQETNCSTAGHSKTPPSGADSKTVKLKSPVLSNTTTEPASTMSPPPAKKLALSAKKASTLWRATGNDLRPPPPSPSSDLTHPMKTSHPVVASTWPVHRARAVSPAPQSSSRLQPPFSPHPTLLSSTPKPPGTSEPRSCSSISTALPQVNEDLVSLPHQLPEASEPPQSPSEKRKKTFVGEPQRLGSETRLPQHIREATAAPHGKRKRKKKKRPEDTAASALQEGQTQRQPGSPMYRREGQAQLPAVRRQEDGTQPQVNGQQVGCVTDGHHASSRKRRRKGAEGLGEEGGLHQDPLRHSCSPMGDGDPEAMEESPRKKKKKKRKQETQRAVEEDGHLKCPRSAKPQDAVVPESSSCAPSANGWCPGDRMGLSQAPPVSWNGERESDVVQELLKYSSDKAYGRKVLTWDGKMSAVSQDAIEDSRQARTETVVDDWDEEFDRGKEKKIKKFKREKRRNFNAFQKLQTRRNFWSVTHPAKAASLSYRR [USP36] | -1.41 | 0.946 | 52.3 °C | 52.2 °C |
| MQAALEVTARYCGRELEQYGQCVAAKPESWQRDCHYLKMSIAQCTSSHPIIRQIRQACAQPFEAFEECLRQNEAAVGNCAEHMRRFLQCAEQVQPPRSPATVEAQPLPAS [CHCHD5] | -0.11 | 0.0671 | 53.5 °C | 50.5 °C |
| MSEAYFRVESGALGPEENFLSLDDILMSHEKLPVRTETAMPRLGAFFLERSAGAETDNAVPQGSKLELPLWLAKGLFDNKRRILSVELPKIYQEGWRTVFSADPNVVDLHKMGPHFYGFGSQLLHFDSPENADISQSLLQTFIGRFRRIMDSSQNAYNEDTSALVARLDEMERGLFQTGQKGLNDFQCWEKGQASQITASNLVQNYKKRKFTDMED [GINS3] | 0.471 | 0.225 | 51.7 °C | 51.7 °C |
| MGNLFGRKKQSRVTEQDKAILQLKQQRDKLRQYQKRIAQQLERERALARQLLRDGRKERAKLLLKKKRYQEQLLDRTENQISSLEAMVQSIEFTQIEMKVMEGLQFGNECLNKMHQVMSIEEVERILDETQEAVEYQRQIDELLAGSFTQEDEDAILEELSAITQEQIELPEVPSEPLPEKIPENVPVKARPRQAELVAAS [CHMP6] | 0.453 | 0.149 | – | 52.2 °C |
| MFPRPLTPLAAPNGAEPLGRALRRAPLGRARAGLGGPPLLLPSMLMFAVIVASSGLLLMIERGILAEMKPLPLHPPGREGTAWRGKAPKPGGLSLRAGDADLQVRQDVRNRTLRAVCGQPGMPRDPWDLPVGQRRTLLRHILVSDRYRFLYCYVPKVACSNWKRVMKVLAGVLDSVDVRLKMDHRSDLVFLADLRPEEIRYRLQHYFKFLFVREPLERLLSAYRNKFGEIREYQQRYGAEIVRRYRAGAGPSPAGDDVTFPEFLRYLVDEDPERMNEHWMPVYHLCQPCAVHYDFVGSYERLEADANQVLEWVRAPPHVRFPARQAWYRPASPESLHYHLCSAPRALLQDVLPKYILDFSLFAYPLPNVTKEACQQ [CHST14] | 0.333 | -0.0549 | 51.9 °C | – |
| MAMSFEWPWQYRFPPFFTLQPNVDTRQKQLAAWCSLVLSFCRLHKQSSMTVMEAQESPLFNNVKLQRKLPVESIQIVLEELRKKGNLEWLDKSKSSFLIMWRRPEEWGKLIYQWVSRSGQNNSVFTLYELTNGEDTEDEEFHGLDEATLLRALQALQQEHKAEIITVSDGRGVKFF [VPS25] | -0.0882 | -0.086 | 51.2 °C | 51.3 °C |
| MSAKPEVSLVREASRQIVAGGSAGLVEICLMHPLDVVKTRFQIQRCATDPNSYKSLVDSFRMIFQMEGLFGFYKGILPPILAETPKRAVKFFTFEQYKKLLGYVSLSPALTFAIAGLGSGLTEAIVVNPFEVVKVGLQANRNTFAEQPSTVGYARQIIKKEGWGLQGLNKGLTATLGRHGVFNMVYFGFYYNVKNMIPVNKDPILEFWRKFGIGLLSGTIASVINIPFDVAKSRIQGPQPVPGEIKYRTCFKTMATVYQEEGILALYKGLLPKIMRLGPGGAVMLLVYEYTYSWLQENW [SLC25A21] | -0.251 | -0.00648 | 56.9 °C | 55.7 °C |
| MAVLKLTDQPPLVQAIFSGDPEEIRMLIHKTEDVNTLDSEKRTPLHVAAFLGDAEIIELLILSGARVNAKDNMWLTPLHRAVASRSEEAVQVLIKHSADVNARDKNWQTPLHVAAANKAVKCAEVIIPLLSSVNVSDRGGRTALHHAALNGHVEMVNLLLAKGANINAFDKKDRRALHWAAYMGHLDVVALLINHGAEVTCKDKKGYTPLHAAASNGQINVVKHLLNLGVEIDEINVYGNTALHIACYNGQDAVVNELIDYGANVNQPNNNGFTPLHFAAASTHGALCLELLVNNGADVNIQSKDGKSPLHMTAVHGRFTRSQTLIQNGGEIDCVDKDGNTPLHVAARYGHELLINTLITSGADTAKCGIHSMFPLHLAALNAHSDCCRKLLSSGFEIDTPDKFGRTCLHAAAAGGNVECIKLLQSSGADFHKKDKCGRTPLHYAAANCHFHCIETLVTTGANVNETDDWGRTALHYAAASDMDRNKTILGNAHDNSEELERARELKEKEATLCLEFLLQNDANPSIRDKEGYNSIHYAAAYGHRQCLELLLERTNSGFEESDSGATKSPLHLAAYNGHHQALEVLLQSLVDLDIRDEKGRTALDLAAFKGHTECVEALINQGASIFVKDNVTKRTPLHASVINGHTLCLRLLLEIADNPEAVDVKDAKGQTPLMLAVAYGHIDAVSLLLEKEANVDTVDILGCTALHRGIMTGHEECVQMLLEQEVSILCKDSRGRTPLHYAAARGHATWLSELLQMALSEEDCCFKDNQGYTPLHWACYNGNENCIEVLLEQKCFRKFIGNPFTPLHCAIINDHGNCASLLLGAIDSSIVSCRDDKGRTPLHAAAFADHVECLQLLLRHSAPVNAVDNSGKTALMMAAENGQAGAVDILVNSAQADLTVKDKDLNTPLHLACSKGHEKCALLILDKIQDESLINEKNNALQTPLHVAARNGLKVVVEELLAKGACVLAVDENASRSNGPRSTPGTAVQKEE [ANKRD44] | -0.235 | -0.0872 | 51.7 °C | 52.2 °C |
